Tested on: Escherichia coli TOP10
Assay: shrunken log2 fold change of peptide-encoding DNA abundance (4.5 h post-induction vs induction); higher = less antimicrobial activity (less host growth inhibition)
Settings: time post-induction: 4.5 h; library: site-saturation at positions 5, 18, 19, 20
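Also: peptides expressed intracellularly from a pBAD plasmid library in pooled LB shake-flask culture, induced with 0.3% L-arabinose, DNA abundance read by NGS, three biological replicates, DESeq2 with apeglm shrinkage.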

| Sequence | shrunken log2 fold change |
| --- | --- |
| RRIRDRPPRLPRPRPRPLTEPRP | 0.236 |
| RRIRCRPPRLPRPRPRPNQGPRP | -0.203 |
| RRIRTRPPRLPRPRPRPVYYPRP | -1.24 |
| RRIRLRPPRLPRPRPRPYLWPRP | -0.0439 |
| RRIRVRPPRLPRPRPRPFWPPRP | 0.162 |
| RRIRLRPPRLPRPRPRPSVWPRP | 0.158 |
| RRIRERPPRLPRPRPRPDLYPRP | -0.0156 |
| RRIRWRPPRLPRPRPRPSCMPRP | 0.11 |
| RRIRFRPPRLPRPRPRPKNTPRP | -0.487 |
| RRIRKRPPRLPRPRPRPLHNPRP | 0.0882 |
| RRIRPRPPRLPRPRPRPSRQPRP | 0.357 |
| RRIRRRPPRLPRPRPRPCQMPRP | 0.0273 |
| RRIRARPPRLPRPRPRPAFWPRP | 0.673 |
| RRIRVRPPRLPRPRPRPGLQPRP | 0.478 |
| RRIRERPPRLPRPRPRPWSEPRP | -0.398 |
| RRIRLRPPRLPRPRPRPPYEPRP | -0.468 |
| RRIRFRPPRLPRPRPRPMPHPRP | -0.0704 |
| RRIRSRPPRLPRPRPRPGWPPRP | 0.692 |
| RRIRTRPPRLPRPRPRPCVPPRP | -0.109 |
| RRIRCRPPRLPRPRPRPVVAPRP | 0.319 |
| RRIRCRPPRLPRPRPRPITRPRP | -0.429 |
| RRIRHRPPRLPRPRPRPNERPRP | 0.0404 |
| RRIRCRPPRLPRPRPRPHGSPRP | -0.0281 |
| RRIRKRPPRLPRPRPRPARAPRP | 0.739 |
| RRIRRRPPRLPRPRPRPTEDPRP | 0.477 |

| Sequence | shrunken log2 fold change |
| --- | --- |
| RRIRHRPPRLPRPRPRPLFDPRP | -0.692 |
| RRIRWRPPRLPRPRPRPIPWPRP | -0.0329 |
| RRIRVRPPRLPRPRPRPMFLPRP | -0.557 |
| RRIRQRPPRLPRPRPRPGSFPRP | -0.0531 |
| RRIRIRPPRLPRPRPRPKMWPRP | 1.25 |
| RRIRTRPPRLPRPRPRPKLPPRP | 0.214 |
| RRIRFRPPRLPRPRPRPYKCPRP | -0.208 |
| RRIRLRPPRLPRPRPRPVWGPRP | 0.0435 |
| RRIRNRPPRLPRPRPRPCQDPRP | -0.0893 |
| RRIRYRPPRLPRPRPRPYKGPRP | -0.721 |
| RRIRNRPPRLPRPRPRPRVEPRP | 0.345 |
| RRIRERPPRLPRPRPRPVPRPRP | 0.151 |
| RRIRARPPRLPRPRPRPCWQPRP | 0.096 |
| RRIRIRPPRLPRPRPRPSAVPRP | -0.306 |
| RRIRDRPPRLPRPRPRPQQNPRP | -0.452 |
| RRIRNRPPRLPRPRPRPCKIPRP | -0.00963 |
| RRIRMRPPRLPRPRPRPAKYPRP | -0.111 |
| RRIRERPPRLPRPRPRPADKPRP | -0.187 |
| RRIRRRPPRLPRPRPRPAFNPRP | 0.201 |
| RRIRMRPPRLPRPRPRPGVPPRP | 0.671 |
| RRIRMRPPRLPRPRPRPEQDPRP | 0.0255 |
| RRIRARPPRLPRPRPRPAKYPRP | -0.156 |
| RRIRDRPPRLPRPRPRPPSQPRP | 0.113 |
| RRIRLRPPRLPRPRPRPAFKPRP | -0.195 |
| RRIRIRPPRLPRPRPRPWLYPRP | -0.0424 |

| Sequence | shrunken log2 fold change |
| --- | --- |
| RRIRVRPPRLPRPRPRPEAHPRP | 0.0146 |
| RRIRGRPPRLPRPRPRPWPGPRP | 0.265 |
| RRIRARPPRLPRPRPRPESPPRP | 0.145 |
| RRIRFRPPRLPRPRPRPFAAPRP | 0.114 |
| RRIRGRPPRLPRPRPRPGGAPRP | 1 |
| RRIRCRPPRLPRPRPRPSPVPRP | 0.00196 |
| RRIRLRPPRLPRPRPRPEKKPRP | -0.176 |
| RRIRKRPPRLPRPRPRPSHKPRP | -0.262 |
| RRIRGRPPRLPRPRPRPRLHPRP | 0.653 |
| RRIRIRPPRLPRPRPRPVWHPRP | -0.413 |
| RRIRGRPPRLPRPRPRPHSWPRP | 0.417 |
| RRIRMRPPRLPRPRPRPCLDPRP | -0.273 |
| RRIRERPPRLPRPRPRPFQSPRP | -0.00776 |
| RRIRNRPPRLPRPRPRPLGGPRP | 0.105 |
| RRIRFRPPRLPRPRPRPGDKPRP | 0.215 |
| RRIRYRPPRLPRPRPRPKYNPRP | -1.24 |
| RRIRWRPPRLPRPRPRPCSEPRP | -0.206 |
| RRIRDRPPRLPRPRPRPCVSPRP | 0.0278 |
| RRIRPRPPRLPRPRPRPCSVPRP | 0.0152 |
| RRIRHRPPRLPRPRPRPMVNPRP | -0.469 |
| RRIRARPPRLPRPRPRPCVKPRP | 0.069 |
| RRIRWRPPRLPRPRPRPAYSPRP | -0.153 |
| RRIRFRPPRLPRPRPRPTIFPRP | -0.274 |
| RRIRCRPPRLPRPRPRPFTRPRP | -0.291 |
| RRIRSRPPRLPRPRPRPGLAPRP | 0.444 |

| Sequence | shrunken log2 fold change |
| --- | --- |
| RRIRDRPPRLPRPRPRPRINPRP | 0.0252 |
| RRIRTRPPRLPRPRPRPWAEPRP | -0.0837 |
| RRIRLRPPRLPRPRPRPNFHPRP | -0.301 |
| RRIRERPPRLPRPRPRPRTFPRP | -0.0471 |
| RRIRRRPPRLPRPRPRPHEPPRP | -0.0636 |
| RRIRHRPPRLPRPRPRPYDYPRP | -0.276 |
| RRIRLRPPRLPRPRPRPRLRPRP | 0.285 |
| RRIRLRPPRLPRPRPRPAICPRP | 0.207 |
| RRIRFRPPRLPRPRPRPWWQPRP | -0.0583 |
| RRIRLRPPRLPRPRPRPKFEPRP | 0.0662 |
| RRIRDRPPRLPRPRPRPTDSPRP | -0.0622 |
| RRIRERPPRLPRPRPRPSWQPRP | -0.00861 |
| RRIRERPPRLPRPRPRPPRHPRP | 0.0414 |
| RRIRRRPPRLPRPRPRPRIWPRP | 0.666 |
| RRIRCRPPRLPRPRPRPWKVPRP | 0.101 |
| RRIRGRPPRLPRPRPRPFPKPRP | 0.0687 |
| RRIRRRPPRLPRPRPRPPTSPRP | 0.54 |
| RRIRCRPPRLPRPRPRPEYMPRP | 0.0436 |
| RRIRRRPPRLPRPRPRPCVNPRP | -0.0549 |
| RRIRHRPPRLPRPRPRPCVKPRP | -0.121 |
| RRIRVRPPRLPRPRPRPGEEPRP | 0.00621 |
| RRIRGRPPRLPRPRPRPPEMPRP | 1.62 |
| RRIRMRPPRLPRPRPRPKYTPRP | 0.169 |
| RRIRYRPPRLPRPRPRPTNMPRP | -0.541 |
| RRIRKRPPRLPRPRPRPKDCPRP | -0.0519 |

| Sequence | shrunken log2 fold change |
| --- | --- |
| RRIRPRPPRLPRPRPRPFKDPRP | -0.93 |
| RRIRMRPPRLPRPRPRPTRWPRP | 2.21 |
| RRIRERPPRLPRPRPRPMKRPRP | -0.312 |
| RRIRFRPPRLPRPRPRPNNHPRP | -0.571 |
| RRIRRRPPRLPRPRPRPDFTPRP | 0.0748 |
| RRIRSRPPRLPRPRPRPDEHPRP | -0.125 |
| RRIRVRPPRLPRPRPRPAALPRP | 0.0637 |
| RRIRFRPPRLPRPRPRPYDQPRP | -0.0152 |
| RRIRIRPPRLPRPRPRPPINPRP | -0.305 |
| RRIRFRPPRLPRPRPRPKEPPRP | -0.135 |
| RRIRRRPPRLPRPRPRPCEMPRP | 0.36 |
| RRIRIRPPRLPRPRPRPHKTPRP | -0.000475 |
| RRIRDRPPRLPRPRPRPDHHPRP | -0.616 |
| RRIRFRPPRLPRPRPRPDNAPRP | -0.167 |
| RRIRMRPPRLPRPRPRPRNFPRP | 1.12 |
| RRIRWRPPRLPRPRPRPVHNPRP | -0.152 |
| RRIRGRPPRLPRPRPRPGKNPRP | 0.0656 |
| RRIRRRPPRLPRPRPRPMMAPRP | 0.142 |
| RRIRKRPPRLPRPRPRPQGDPRP | 0.0739 |
| RRIRPRPPRLPRPRPRPNSVPRP | -0.174 |
| RRIRERPPRLPRPRPRPDGFPRP | -0.134 |
| RRIRPRPPRLPRPRPRPMTFPRP | -0.0264 |
| RRIRVRPPRLPRPRPRPQNEPRP | -0.303 |
| RRIRVRPPRLPRPRPRPHCGPRP | -0.309 |
| RRIRQRPPRLPRPRPRPWDSPRP | -0.198 |
